Patent publication US20110165592A1 (HOFFMAN LA ROCHE, published 2011)

T1: human EPO receptor (human, UniProt P19235 25-508)
T1 construct: whole, on cells; In the Western blots the receptor stood in lysates of HeLa-EPOR (recombinant) and UT-7 cells; band of about 60 kDa; also called human erythropoietin receptor
T1 sequence (looked up): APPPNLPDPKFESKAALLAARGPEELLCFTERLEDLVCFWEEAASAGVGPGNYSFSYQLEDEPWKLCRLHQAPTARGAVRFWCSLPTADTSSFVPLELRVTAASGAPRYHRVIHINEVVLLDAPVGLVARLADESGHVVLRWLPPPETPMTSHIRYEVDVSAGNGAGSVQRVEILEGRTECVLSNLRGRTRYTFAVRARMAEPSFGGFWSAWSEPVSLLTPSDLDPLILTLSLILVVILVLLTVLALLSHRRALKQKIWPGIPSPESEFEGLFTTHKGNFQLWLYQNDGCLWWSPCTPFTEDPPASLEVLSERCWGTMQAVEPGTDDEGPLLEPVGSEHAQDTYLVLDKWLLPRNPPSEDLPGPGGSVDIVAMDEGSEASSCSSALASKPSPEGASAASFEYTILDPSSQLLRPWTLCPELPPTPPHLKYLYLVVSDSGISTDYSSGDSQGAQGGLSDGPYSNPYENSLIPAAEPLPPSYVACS

T2: biotinylated peptide 382-402 (corresponding to the mature EPOR) (human, biotinylated (site not stated))
T2 construct: Range counted on mature human EPOR (aa406-426 of the precursor); also called EPOR peptide 382-402
T2 peptide: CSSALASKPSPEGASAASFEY


Tests used:
human EPO receptor = target: T1, human EPO receptor; test: Western blot of lysates of HELAwt, HELA-EPOR and UT-7 cells
Procedure: FIG. 2 WB analysis of lysates from HELAwt, HELA-EPOR and UT-7 cells (to show specificity). (a) Specific binding of Mab Cl. […] (b) Specific binding of Mab Cl.
The SDS-PAGE and western blotting were performed according to standard procedures and the NuPAGE® gel system of Invitrogen. The extracts corresponding to different number of cells were loaded in each line of a NuPAGE® Novex® 4-12% Bis-Tris gel. The proteins were then transferred onto PVDF membranes and incubated with the respective antibodies overnight at 4° C. After washing, the membranes were incubated with a conjugate anti-mouse or anti-rabbit IgG-POD and developed using ECL reagents (Lumi-Light^PLus western blotting substrate, Roche Diagnostics GmbH): Results are shown in FIG. 2.

[1] = target: T2, biotinylated peptide 382-402 …; test: Biacore 3000 SPR, 25 C, antibody on immobilized biotinylated peptide (avidity)
Procedure: Measurements were made on a BIACORE™ 3000 at 25° C. in HBS-EP-Buffer, pH 7.4 (10 mM HEPES, 150 mM NaCl, 3.4 mM EDTA, 0.005% polysorbate 20 (w/v). 1.0 mg/ml CMD was added to reduce unspecific binding. Results are shown in Table 1.

Row | binding result (human EPO receptor) | Ka [1] | Kd [1] | koff [1] | kon [1] | Binder
1 | binds | – | – | – | – | Mab Cl. 21.3.1 (antibody, V domains shown) VH: AVQVVESGGDLVKPGGSLQLSCAASGFTFSSYAMSWARQTPEKRLEWVATISGRGTYTYYPDSVKGRFTISRDNAKNILYLQMSSLRSEDTAMYYCTPRLFAYWGQGTLVTVSA VL: not shown
2 | binds | 1.1e+09 M⁻¹ | 1 nM | 0.0021 s⁻¹ | 1.9e+06 M⁻¹ s⁻¹ | Mab Cl. 19.1.2 (antibody, V domains shown, Mouse (Balb/c) monoclonal raised against peptide 382-402) VH: QVQLQQSGAELVRPGSSVKISCKASGYTFSRYWMNWVKQRPGQGLEWIGQIYPGDGDTNYIGDFKGKATLTADKSSSIAYMQLSSLTSEDSAVYFCARLMVPTYGLDYWGQGTSVTVSS VL: DIVMSQSPSSLAVSAGEKVTMSCKSSQSLLNSRTRKNYLAWYQQKPGQSPKLLIYWASTRESGVPDRFTGSGSGTDFTLTIYSVQAEDLAVYYCKESYILPYTLGGGTKLEIK
